Laboratory results taken from patent US20220174981A1, “PROLINE TOLERANT TRIPEPTIDYL PEPTIDASES AND USES THEREOF” (DuPont Nutrition Biosciences APS, priority 2014, published 2022).

Tests used:
[1] = test system: sodium caseinate; experiment: 5% sodium caseinate hydrolysis with endopeptidase, TRI083 and PepN, serine equivalents; assay type: biochemical; conditions: doubling of the PepN activity from 786 to 1572 nkat/mL
[2] = test system: H-Ala-Ala-Ala-OH; experiment: Pre-hydrolysis of H-Ala-Ala-Ala-OH by PepN, gas chromatography; assay type: biochemical; conditions: 24 h, 40° C., pH 4.0
Protocol: The inhibition experiments were set up as described in Example 14. Furthermore, 1 mg/mL H-Ala-Ala-Ala-OH (Bachem, Switzerland) was subjected to general aminopeptidase (PepN) hydrolysis for 24 h at 40° C. in 12.5 times diluted McIlvaine buffer (pH 4.0). For this, […] H-Ala-Ala-Ala-OH was dissolved in 8 mL 10 times diluted McIlvaine buffer (pH 4.0) and filled up to 10 mL with purified PepN (1,572 nkat/mL [pH 6.5]). After 24 h of hydrolysis, the PepN hydrolysis was terminated by heat inactivation of the PepN (90° C.; 10 min). The degree of pre-hydrolysis of H-Ala-Ala-Ala-OH was determined by gas chromatography (Husek, 1991; FEBS-Letters 280, 354-356). About 0.18 mg/mL alanine was measured, which corresponds to about 54% hydrolyses of the initially applied H-Ala-Ala-Ala-OH.

[3] = test system: azocasein; experiment: Azocasein assay for endoprotease activity; assay type: biochemical; conditions: PepN applied in WPI hydrolysis
Protocol: (§1) A modified version of the endoprotease assay described by Iversen and Jørgensen, 1995 (Biotechnology Techniques 9, 573-576) is used. An enzyme sample of 50 μl is added to 250 μl of azocasein (0.25% w/v; from Sigma) in 4 times diluted McIlvaine buffer, pH 5 and incubated for 15 min at 40° C. with shaking (800 rpm). The reaction is terminated by adding 50 μl of 2 M trichloroacetic acid (TCA) (from Sigma Aldrich, Denmark) and centrifugation for 5 min at 20,000 g. To a 195 μl sample of the supernatant 65 μl of 1 M NaOH is added and absorbance at 450 nm is measured. One unit of endoprotease activity is defined as the amount which yields an increase in absorbance of 0.1 in 15 min at 40° C. at 450 nm.
as §1, with “Jorgensen,” for “Jørgensen,”, “1995” for “1995 (Biotechnology Techniques 9, 573-576)”, “TCA” for “trichloroacetic acid (TCA) (from Sigma Aldrich, Denmark)”, “C.” for “C. at 450 nm.”
Endopeptidase side-activity was measured with the azocasein as described in Example 2.

[4] = test system: whey protein isolate (WPI); experiment: 15% WPI hydrolysis at pH 6, 50° C. with endopeptidases, TRI079 and PepN; assay type: biochemical; conditions: 24 h
Protocol: For WPI hydrolysis, Lacprodan-9224 (Arla Food Ingredients, Denmark) was employed, a 15% (w/w) WPI suspension was prepared in H2Od and adjusted to pH 6 with sodium hydroxide. To prevent microbial growth, 0.0285% (w/w) NaN3 was added. Subsequently, 0.5% (w/w on protein substrate) Food Pro® Alkaline Protease and 0.5% (w/w on protein substrate) Food Pro® PNL was added and a volume of 200 μl of the WPI suspension was transferred into each of the 96 wells of a microtiter plate (MTP; VWR, Denmark). Following this, 5 μl of the proline tolerant tripeptidyl peptidase TRI079 containing either 0 or 2188 nkat/mL and 5 ul of PepN (described in EXAMPLE 10) containing either 0, 197 or 393 nkat/mL were added to the particular wells of the MTP. Then, the MTP was sealed and placed in an incubator at 50° C. (iEMS incubator/shaker HT, Thermo Scientific, Denmark).
After 24 h of incubation and shaking at 400 rpm, the hydrolysis was stopped by addition of 20 μl of 2 M trichloroacetic acid (TCA; Sigma-Aldrich, Denmark), except for the reference (0 h) to which the TCA was added prior to endo- and exopeptidase addition. […] The measured absorptions at 340 nm in a MTP reader (VersaMax, Molecular Devices, Denmark) were transformed into serine equivalents employing a serine calibration curve (0-2 mM).

[5] = general aminopeptidase (Pep N) of the named origin; cited from earlier work
[6] = target: T1, H-Ala-Pro-pNA (Lactobacillus helveticus, UniProt Q10730); experiment: X-prolyl-dipeptidyl (PepX) side-activity; assay type: biochemical; conditions: PepN applied in WPI hydrolysis
T1 construct: His-tag; made in house; host or cells: E. coli
T1 sequence (Q10730 1-844 F39I/L44F/S342A/S372G/S496N/T525I/H527L): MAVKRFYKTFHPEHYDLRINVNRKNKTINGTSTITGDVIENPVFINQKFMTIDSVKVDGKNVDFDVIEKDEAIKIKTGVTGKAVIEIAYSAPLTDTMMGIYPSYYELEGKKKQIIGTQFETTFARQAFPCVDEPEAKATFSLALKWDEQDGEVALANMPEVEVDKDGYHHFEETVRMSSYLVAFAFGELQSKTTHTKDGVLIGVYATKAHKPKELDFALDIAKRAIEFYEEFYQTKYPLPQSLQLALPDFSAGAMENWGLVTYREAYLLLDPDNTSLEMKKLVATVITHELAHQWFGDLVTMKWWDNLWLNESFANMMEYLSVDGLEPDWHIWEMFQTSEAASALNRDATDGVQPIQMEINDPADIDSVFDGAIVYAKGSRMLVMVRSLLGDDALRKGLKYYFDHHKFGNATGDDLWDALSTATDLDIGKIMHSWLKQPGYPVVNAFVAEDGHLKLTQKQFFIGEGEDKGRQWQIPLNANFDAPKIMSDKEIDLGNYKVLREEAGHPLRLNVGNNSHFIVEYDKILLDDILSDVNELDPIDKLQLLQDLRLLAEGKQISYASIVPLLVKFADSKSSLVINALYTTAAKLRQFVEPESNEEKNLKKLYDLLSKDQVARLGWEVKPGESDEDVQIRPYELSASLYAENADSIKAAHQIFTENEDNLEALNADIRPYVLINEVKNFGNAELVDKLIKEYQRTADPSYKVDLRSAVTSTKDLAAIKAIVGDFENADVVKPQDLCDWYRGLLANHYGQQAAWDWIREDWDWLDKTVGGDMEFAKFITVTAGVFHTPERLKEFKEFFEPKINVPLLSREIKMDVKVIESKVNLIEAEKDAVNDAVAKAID

B1: PepN: recombinantly in E. coli expressed and His-tag purified general aminopeptidase (PepN) from Lactobacillus helveticus ATCC 12046 (protein, UniProt Q10730 1-844, looked up)
Aminopeptidase N: MAVKRFYKTFHPEHYDLRINVNRKNKTINGTSTITGDVFENPVLINQKFMTIDSVKVDGKNVDFDVIEKDEAIKIKTGVTGKAVIEIAYSAPLTDTMMGIYPSYYELEGKKKQIIGTQFETTFARQAFPCVDEPEAKATFSLALKWDEQDGEVALANMPEVEVDKDGYHHFEETVRMSSYLVAFAFGELQSKTTHTKDGVLIGVYATKAHKPKELDFALDIAKRAIEFYEEFYQTKYPLPQSLQLALPDFSAGAMENWGLVTYREAYLLLDPDNTSLEMKKLVATVITHELAHQWFGDLVTMKWWDNLWLNESFANMMEYLSVDGLEPDWHIWEMFQTSEASSALNRDATDGVQPIQMEINDPADIDSVFDSAIVYAKGSRMLVMVRSLLGDDALRKGLKYYFDHHKFGNATGDDLWDALSTATDLDIGKIMHSWLKQPGYPVVNAFVAEDGHLKLTQKQFFIGEGEDKGRQWQIPLNANFDAPKIMSDKEIDLGSYKVLREEAGHPLRLNVGNNSHFIVEYDKTLHDDILSDVNELDPIDKLQLLQDLRLLAEGKQISYASIVPLLVKFADSKSSLVINALYTTAAKLRQFVEPESNEEKNLKKLYDLLSKDQVARLGWEVKPGESDEDVQIRPYELSASLYAENADSIKAAHQIFTENEDNLEALNADIRPYVLINEVKNFGNAELVDKLIKEYQRTADPSYKVDLRSAVTSTKDLAAIKAIVGDFENADVVKPQDLCDWYRGLLANHYGQQAAWDWIREDWDWLDKTVGGDMEFAKFITVTAGVFHTPERLKEFKEFFEPKINVPLLSREIKMDVKVIESKVNLIEAEKDAVNDAVAKAID
modifications: His-tag
Question: With B1 as the molecule, how does the “increase of serine equivalents” value [1] read?
Answer: Its value is 10 mM.

Question: And the alanine measured ([2]; 1 mg/mL H-Ala-Ala-Ala-OH)?
Answer: Its alanine measured is “About 0.18 mg/mL”.

Question: What about the “hydrolyses of the initially applied H-Ala-Ala-Ala-OH” value [2] of the same molecule?
Answer: Its value is “about 54%”.

Question: And the endopeptidase side-activity [3]?
Answer: The endopeptidase side-activity was “free of endopeptidase”.

Question: What about the “DH (in %) of WPI hydrolysate” value ([4]; PepN 197, TRI 079 0 nkat/mL) of the same molecule?
Answer: The value was 18.2%.

Question: And the “DH (in %) of WPI hydrolysate” value ([4]; PepN 393, TRI 079 0 nkat/mL)?
Answer: Its value is 18.8%.

Question: And the “Substrate Specificity” value [5]?
Answer: Its value is “Ala, Lys, Arg, Leu, Phe, Val, Ile, and Pro”.

Question: And the pH-optimum [5]?
Answer: Its pH-optimum is 6.5.

Question: What about the temp.-range [5] of the same molecule?
Answer: Its temp.-range is 10-50 C.

Question: And the “X-prolyl-dipeptidyl (PepX) side-activity” value [6]?
Answer: Its value is “free of”.
